Results from article PMC2779847.

What was measured:
[1] = molecular target: MsDps2ΔN15 (MsDps2 lacking 15 amino acids from the N-terminus) (Mycobacterium smegmatis); assay: native gel or EMSA; 10% native gel; BSA and ferritin as markers; oligomeric state of the purified protein
[2] = molecular target: MsDps2 protein (second Dps homologue of Mycobacterium smegmatis) (Mycobacterium smegmatis); assay: as above
[3] = molecular target: MsDps2 protein (second Dps homologue of Mycobacterium smegmatis) (Mycobacterium smegmatis); assay: negative-stain transmission electron microscopy; MsDps2 in 20 mM Tris, 200 mM NaCl on copper grids, stained with uranyl acetate, 80 kV, 50,000x

Substance	stoichiometry N [1]	stoichiometry N [2]	stoichiometry N [3]
MsDps2ΔN15 (MsDps2 lacking 15 amino acids from the N-terminus) (domain or fragment)	12		
MsDps2 protein (second Dps homologue of Mycobacterium smegmatis) (natural protein)		12	12
